This is an account of results in paper PMC6367718 (Cell, 2019).

The target of data set [1] is T1, TRV055-occupied FLAG-AT1R (human, UniProt P30556).
T1 chain 1: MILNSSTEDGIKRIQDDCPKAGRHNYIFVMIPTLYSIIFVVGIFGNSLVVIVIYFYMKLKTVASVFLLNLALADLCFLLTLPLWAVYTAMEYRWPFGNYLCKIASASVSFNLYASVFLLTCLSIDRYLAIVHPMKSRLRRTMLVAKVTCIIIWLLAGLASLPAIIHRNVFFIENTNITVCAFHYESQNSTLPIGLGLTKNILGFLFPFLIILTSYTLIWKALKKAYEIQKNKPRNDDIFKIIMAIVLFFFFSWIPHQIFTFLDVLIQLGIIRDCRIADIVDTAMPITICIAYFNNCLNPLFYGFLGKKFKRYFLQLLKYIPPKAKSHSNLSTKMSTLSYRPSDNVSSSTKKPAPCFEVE
T1 chain 2: GVYIHPF
The data set can be described thus: radioligand binding.

The data set “crystal structure” deals with the molecule itself. The data set can be described thus: crystal structure.

Changes are numbered by the printed parent chain.

B1: Nb.AT110, purified (VHH)
VHH: QVQLQESGGGLVQAGGSLRLSCAASGNIFDADIMGWYRQAPGKERELVASITDGGSTNYADSVKGRFTISRDNAKNTVYLQMNSLKPEDTAVYYCAAIAYPDIPTYFDYDSDYFYWGQGTQVTVSS
As to B1, the “log EC50 (M) of the change in the log IC50 of TRV055” value in data set [1] was -6.6 log M.

B2: Nb.AT110i1, carboxypeptidase A-treated (for crystallography) (VHH)
VHH: B1 VHH with A31V, N58D, I98V, Y113N
Take B2: the binding result in the data set “crystal structure” is reported as “binds”.
